We go through 29 sequences from the Immune Epitope Database (IEDB).

For one experiment, the target named is HLA-A*32:01. Briefly: IEDB peptide-MHC binding, purified MHC/competitive/radioactivity; filed as Kd, often an IC50 or EC50 that approximates it; ≥ and ≤ were set here for values at or beyond the usual limits of such assays.
In experiment [1] the target is HLA-A*24:02. The experiment can be described thus: IEDB peptide-MHC binding, purified MHC/competitive/fluorescence; ≥ and ≤ were set here for values at or beyond the usual limits of such assays.
Another experiment addresses HLA-A*02:01. The description is as above.
A further experiment concerns the target HLA-A*29:02. The experiment can be described thus: IEDB peptide-MHC binding, purified MHC/competitive/radioactivity; filed as Kd, often an IC50 or EC50 that approximates it; ≥ and ≤ were set here for values at or beyond the usual limits of such assays.
The target of a further experiment is HLA-A*30:02. The experiment is described as above.
The target in a further experiment is HLA-A*26:01. Described as above.
The target of a further experiment is HLA-A*30:01. The description is as above.
The next experiment has as its target HLA-A*01:01. Described as above.
In experiment [2] the target is HLA-A*24:02. The description is as above. Particulars: source organism: Mammarenavirus oliverosense.
A further experiment deals with HLA-A*23:01. The experiment is described as above. Particulars: source organism: Mammarenavirus oliverosense.
The target in the next experiment is HLA-B*15:01. Described as above. Particulars: source organism: Vaccinia virus WR.
For another experiment, the target named is HLA-A*68:01. The description is as above. Particulars: source organism: Dengue virus 1 Brazil/97-11/1997.
[3] abbreviates: source organism: Vaccinia virus WR.
Where [4] appears, read: source organism: Zaire ebolavirus.
Where [5] appears, read: source organism: Mammarenavirus brazilense.
Where [6] appears, read: source organism: Sudan ebolavirus.
Where [7] appears, read: source organism: Vaccinia virus.
Where [8] appears, read: source organism: Mammarenavirus lassaense.
The mark [9] stands for this setting: source organism: Mammarenavirus juninense.
Where [10] appears, read: source organism: Lymphocytic choriomeningitis virus (strain Armstrong).

Bounds are passed on as bounds.

For orientation: Kd means the equilibrium constant for the complex coming apart. As a reminder, the IC50 is the concentration that gives 50% inhibition. The low end stands for inhibition by little substance, the high end for a need for much substance.

Regarding LIILSAVAI, the dissociation constant (Kd) in the experiment with HLA-A*32:01 (setting [3]) stood at 0.125 µM.
Take FHKEGAFFL: the concentration for half-maximal inhibition (IC50) with HLA-A*24:02 [1] (setting [4]) was 0.719 µM; in the experiment with HLA-A*02:01 (setting [4]) it was no less than 97.8 µM.
The like results for GVVAFLILP were, in that order, no less than 194 µM and 53.9 µM.
Take SLTEEFYHSY: the Kd with HLA-A*29:02 (setting [5]) was 1.44 µM; with HLA-A*30:02 (setting [5]) it was 0.225 µM; with HLA-A*26:01 (setting [5]), 3.41 µM; with HLA-A*32:01 (setting [5]), no less than 26.1 µM; in the experiment with HLA-A*30:01 (setting [5]) it was no less than 58.5 µM; with HLA-A*01:01 (setting [5]), 0.129 µM.
Consider GLNISGYNY, for which the Kd is 0.0168 µM with HLA-A*29:02 (setting [5]); 0.0957 µM with HLA-A*30:02 (setting [5]); no less than 67.9 µM with HLA-A*26:01 (setting [5]); 16.5 µM with HLA-A*32:01 (setting [5]); no less than 39.2 µM in the experiment with HLA-A*30:01 (setting [5]); 13.4 µM with HLA-A*01:01 (setting [5]).
For RIFFGKTSI, in the experiment with HLA-A*32:01 (setting [3]), the Kd was found to be 0.00132 µM.
As to AGVLARWGTF, in the experiment with HLA-A*32:01 (source organism: Dengue virus 3 Martinique/1243/1999), the equilibrium dissociation constant (Kd) came out at 8.42 µM.
With IGIEILNTI, the 50% inhibitory concentration (IC50) with HLA-A*24:02 [1] (setting [3]) worked out at 0.131 µM; with HLA-A*02:01 (setting [3]), 0.701 µM.
Regarding RISRFANLI, the dissociation constant Kd in the experiment with HLA-A*32:01 (setting [3]) came to 0.00623 µM.
Take ITLHLACGF: in the experiment with HLA-A*32:01 (setting [3]), the Kd came out at 0.00141 µM.
Turning to FLFQLNDTI, the IC50 with HLA-A*24:02 [1] (setting [6]) is 0.879 µM; with HLA-A*02:01 (setting [6]) it was 0.257 µM.
Take KFPYEGGKV: the concentration for half-maximal inhibition (IC50) in the experiment with HLA-A*24:02 [1] (setting [7]) was no less than 130 µM; with HLA-A*02:01 (setting [7]), no less than 96.1 µM.
For the sequence AAHSARPPPY, the Kd with HLA-A*29:02 (setting [8]) was determined as 0.272 µM; in the experiment with HLA-A*30:02 (setting [8]), 4.57 µM; with HLA-A*26:01 (setting [8]), 2.28 µM; with HLA-A*32:01 (setting [8]), 2.41 µM; with HLA-A*30:01 (setting [8]), 0.114 µM; with HLA-A*01:01 (setting [8]), 18.8 µM.
For YLEYEIENF, the IC50 with HLA-A*24:02 [1] (setting [6]) worked out at 17.3 µM; in the experiment with HLA-A*02:01 (setting [6]), 42.6 µM.
For the sequence LVVGEKACL, the half-maximal inhibitory concentration (IC50) with HLA-A*24:02 [1] (setting [4]) is no less than 139 µM; with HLA-A*02:01 (setting [4]) it was no less than 115 µM.
Regarding KTGEKSRCY, the Kd with HLA-A*29:02 (setting [9]) is no less than 78.9 µM; in the experiment with HLA-A*30:02 (setting [9]), 2.19 µM; with HLA-A*26:01 (setting [9]), no less than 77.9 µM; in the experiment with HLA-A*32:01 (setting [9]), 0.116 µM; in the experiment with HLA-A*30:01 (setting [9]), 2.48 µM; with HLA-A*01:01 (setting [9]), no less than 22.5 µM.
For CSANNSHHY, the Kd with HLA-A*29:02 (setting [10]) is 0.522 µM; in the experiment with HLA-A*30:02 (setting [10]) it was 0.0106 µM; with HLA-A*26:01 (setting [10]), 8.05 µM; with HLA-A*32:01 (setting [10]) it was no less than 49.8 µM; with HLA-A*30:01 (setting [10]), no less than 43.7 µM; in the experiment with HLA-A*01:01 (setting [10]), 0.0102 µM.
For ICLSGEGWPY, the Kd in the experiment with HLA-A*24:02 [2] is no less than 70.3 µM; with HLA-A*32:01 (setting [5]), no less than 21.2 µM; in the experiment with HLA-A*30:01 (setting [5]) it was 4.29 µM; in the experiment with HLA-A*23:01, no less than 56.8 µM.
As to RYQATGFGT, the IC50 with HLA-A*24:02 [1] (setting [4]) was no less than 99.3 µM; with HLA-A*02:01 (setting [4]) it was no less than 226 µM.
For the sequence EWAMEKSSK, the half-inhibitory concentration (IC50) with HLA-A*24:02 [1] (setting [7]) is no less than 382 µM.
AINFKIFNI: the equilibrium dissociation constant (Kd) with HLA-A*32:01 (setting [3]) is 0.0221 µM.
On the same count and under the same terms, the same measure for IVINPFVKF: 3.26 µM.
For DFFSSHPLR, in the experiment with HLA-A*24:02 [1] (setting [4]), the half-maximal inhibitory concentration (IC50) was no less than 124 µM.
Consider KTKLTDWDFV, for which, in the experiment with HLA-A*32:01 (source organism: Dengue virus 4 Philippines/H241/1956), the Kd amounted to 15.6 µM.
In the experiment with HLA-A*24:02 [1] (setting [3]), EQAFYTRVL yielded a 50% inhibitory concentration (IC50) of 58.8 µM.
Regarding NLSGVNNLE, the IC50 is no less than 86.4 µM with HLA-A*24:02 [1] (setting [4]) and no less than 227 µM with HLA-A*02:01 (setting [4]).
For KTIARFTYF, the dissociation constant (Kd) with HLA-B*15:01 was 0.000195 µM; with HLA-A*32:01 (setting [3]) it was 0.0952 µM.
As for EVMRSRWSRK, the equilibrium dissociation constant (Kd) was no less than 50.1 µM in the experiment with HLA-A*32:01 (source organism: Dengue virus 1 Brazil/97-11/1997) and 0.00894 µM with HLA-A*68:01.
For the sequence STAPSSPPPY, the Kd in the experiment with HLA-A*29:02 (setting [10]) was 2.69 µM; in the experiment with HLA-A*30:02 (setting [10]) it was 1.52 µM; with HLA-A*26:01 (setting [10]), 8.26 µM; in the experiment with HLA-A*32:01 (setting [10]), 9.4 µM; with HLA-A*30:01 (setting [10]), 0.344 µM; in the experiment with HLA-A*01:01 (setting [10]) it was 0.034 µM.
